Data from the Immune Epitope Database (IEDB).
One block for each sequence: values may come before it.

Assays:
HLA-B*83:01 = experiment: IEDB peptide-MHC binding, purified MHC/competitive/fluorescence; filed as Kd, often an IC50 or EC50 that approximates it; ≥ and ≤ were set here for values at or beyond the usual limits of such assays
HLA-B*15:42 = experiment: as above
HLA-B*27:20 = experiment: as above
HLA-B*45:06 = experiment: as above
HLA-C*04:01 = experiment: as above; settings: source organism: Yersinia pestis CO92
HLA-C*01:02 = experiment: IEDB peptide-MHC binding, purified MHC/direct/fluorescence; filed as Kd, often an IC50 or EC50 that approximates it; ≥ and ≤ were set here for values at or beyond the usual limits of such assays; settings: source organism: Homo sapiens
HLA-B*35:01 [1] = experiment: IEDB peptide-MHC binding, cellular MHC/competitive/fluorescence; ≥ and ≤ were set here for values at or beyond the usual limits of such assays; settings: source organism: Influenza A virus H3N2
HLA-B*73:01 = experiment: IEDB peptide-MHC binding, purified MHC/competitive/fluorescence; filed as Kd, often an IC50 or EC50 that approximates it; ≥ and ≤ were set here for values at or beyond the usual limits of such assays; settings: source organism: Vibrio cholerae V52
HLA-A*02:01 [2] = experiment: IEDB peptide-MHC binding, cellular MHC/competitive/fluorescence; ≥ and ≤ were set here for values at or beyond the usual limits of such assays; settings: source organism: Measles morbillivirus
HLA-C*08:02 = experiment: IEDB peptide-MHC binding, purified MHC/direct/fluorescence; filed as Kd, often an IC50 or EC50 that approximates it; ≥ and ≤ were set here for values at or beyond the usual limits of such assays; settings: source organism: Burkholderia mallei SAVP1
HLA-A*29:02 [3] = experiment: IEDB peptide-MHC binding, purified MHC/competitive/fluorescence; filed as Kd, often an IC50 or EC50 that approximates it; ≥ and ≤ were set here for values at or beyond the usual limits of such assays; settings: source organism: Burkholderia mallei SAVP1
HLA-B*15:17 = experiment: as above; settings: source organism: Burkholderia mallei SAVP1
HLA-B*18:01 [4] = experiment: as above; settings: source organism: Burkholderia mallei SAVP1
HLA-B*27:03 = experiment: as above; settings: source organism: Burkholderia mallei SAVP1
HLA-A*26:01 [5] = experiment: as above; settings: source organism: Burkholderia mallei SAVP1
HLA-A*02:11 = experiment: as above; settings: source organism: Burkholderia mallei SAVP1
HLA-B*57:01 [6] = experiment: as above; settings: source organism: Burkholderia mallei SAVP1
HLA-A*03:01 [7] = experiment: as above; settings: source organism: Burkholderia mallei SAVP1
HLA-B*46:01 = experiment: as above; settings: source organism: Burkholderia mallei SAVP1
HLA-A*68:02 [8] = experiment: as above; settings: source organism: Burkholderia mallei SAVP1
HLA-B*51:01 [9] = experiment: as above; settings: source organism: Burkholderia mallei SAVP1
HLA-A*69:01 [10] = experiment: as above; settings: source organism: Burkholderia mallei SAVP1
HLA-A*02:01 [11] = experiment: as above; settings: source organism: Burkholderia mallei SAVP1
HLA-A*24:02 [12] = experiment: IEDB peptide-MHC binding, purified MHC/competitive/radioactivity; ≥ and ≤ were set here for values at or beyond the usual limits of such assays; settings: source organism: Homo sapiens
HLA-C*14:02 [13] = experiment: IEDB peptide-MHC binding, purified MHC/direct/fluorescence; filed as Kd, often an IC50 or EC50 that approximates it; ≥ and ≤ were set here for values at or beyond the usual limits of such assays; settings: source organism: Homo sapiens
HLA-A*29:02 [14] = experiment: IEDB peptide-MHC binding, purified MHC/competitive/fluorescence; ≥ and ≤ were set here for values at or beyond the usual limits of such assays; settings: source organism: Homo sapiens
HLA-A*24:02 [15] = experiment: as above; settings: source organism: Homo sapiens
HLA-B*37:01 = experiment: as above; settings: source organism: Homo sapiens
HLA-B*18:01 [16] = experiment: as above; settings: source organism: Homo sapiens
HLA-B*14:02 = experiment: as above; settings: source organism: Homo sapiens
HLA-B*53:01 = experiment: as above; settings: source organism: Homo sapiens
HLA-A*31:01 = experiment: as above; settings: source organism: Homo sapiens
HLA-B*08:01 = experiment: as above; settings: source organism: Homo sapiens
HLA-A*01:01 = experiment: as above; settings: source organism: Homo sapiens
HLA-B*40:02 = experiment: as above; settings: source organism: Homo sapiens
HLA-B*07:02 = experiment: as above; settings: source organism: Homo sapiens
HLA-A*03:01 [17] = experiment: as above; settings: source organism: Homo sapiens
HLA-A*25:01 = experiment: as above; settings: source organism: Homo sapiens
HLA-A*68:02 [18] = experiment: as above; settings: source organism: Homo sapiens
HLA-A*11:01 = experiment: as above; settings: source organism: Homo sapiens
HLA-B*51:01 [19] = experiment: as above; settings: source organism: Homo sapiens
HLA-B*35:01 [20] = experiment: as above; settings: source organism: Homo sapiens
HLA-B*58:01 = experiment: as above; settings: source organism: Homo sapiens
HLA-A*02:01 [21] = experiment: as above; settings: source organism: Homo sapiens
HLA-B*44:03 = experiment: as above; settings: source organism: Homo sapiens
HLA-A*02:01 [22] = experiment: IEDB peptide-MHC binding, binding assay; filed as Kd, often an IC50 or EC50 that approximates it; ≥ and ≤ were set here for values at or beyond the usual limits of such assays; settings: source organism: Severe acute respiratory syndrome coronavirus 2 Indonesia/JI-ITD-12202V/2020
HLA-A*29:02 [23] = experiment: IEDB peptide-MHC binding, purified MHC/direct/fluorescence; filed as Kd, often an IC50 or EC50 that approximates it; ≥ and ≤ were set here for values at or beyond the usual limits of such assays; settings: source organism: Coxiella burnetii Q321
HLA-B*18:01 [24] = experiment: as above; settings: source organism: Coxiella burnetii Q321
HLA-C*07:02 = experiment: as above; settings: source organism: Coxiella burnetii RSA 493
HLA-A*26:01 [25] = experiment: as above; settings: source organism: Coxiella burnetii Q321
HLA-B*57:01 [26] = experiment: as above; settings: source organism: Coxiella burnetii Q321
HLA-A*03:01 [27] = experiment: as above; settings: source organism: Coxiella burnetii Q321
HLA-A*69:01 [28] = experiment: as above; settings: source organism: Coxiella burnetii Q321
HLA-C*14:02 [29] = experiment: IEDB peptide-MHC binding, purified MHC/competitive/fluorescence; filed as Kd, often an IC50 or EC50 that approximates it; ≥ and ≤ were set here for values at or beyond the usual limits of such assays; settings: source organism: Coxiella burnetii RSA 493
HLA-C*06:02 = experiment: as above; settings: source organism: Coxiella burnetii RSA 493
[30] = source organism: Yersinia pestis CO92
[31] = source organism: Coxiella burnetii RSA 493

Sequence: FRDRGQHVL
- Kd (HLA-B*83:01; [30]): ≥ 5 µM
- Kd (HLA-B*15:42; [30]): ≥ 5 µM
- Kd (HLA-B*27:20; [30]): 0.0004 µM
- Kd (HLA-B*45:06; [30]): ≥ 5 µM
- Kd (HLA-C*04:01): ≥ 5 µM

- Kd (HLA-C*01:02): ≤ 0.0001 µM
Sequence: HLSSSQLQSL

Sequence: LPFDKPTIM
- IC50 (HLA-B*35:01 [1]): 1.6 µM

Sequence: NRTQGGLRA
- Kd (HLA-B*73:01): 0.136 µM

Sequence: QLPEATFMV
- IC50 (HLA-A*02:01 [2]): 2 µM

Sequence: RLDARLQVL
- Kd (HLA-C*08:02): 0.082 µM
- Kd (HLA-A*29:02 [3]): 1.02 µM
- Kd (HLA-B*15:17): ≥ 20 µM
- Kd (HLA-B*18:01 [4]): ≥ 20 µM
- Kd (HLA-B*27:03): ≥ 20 µM
- Kd (HLA-A*26:01 [5]): ≥ 20 µM
- Kd (HLA-A*02:11): 0.0011 µM
- Kd (HLA-B*57:01 [6]): ≥ 20 µM
- Kd (HLA-A*03:01 [7]): ≥ 20 µM
- Kd (HLA-B*46:01): ≥ 20 µM
- Kd (HLA-A*68:02 [8]): ≥ 20 µM
- Kd (HLA-B*51:01 [9]): ≥ 20 µM
- Kd (HLA-A*69:01 [10]): ≥ 20 µM
- Kd (HLA-A*02:01 [11]): 0.0074 µM

- IC50 (HLA-A*24:02 [12]): 0.8 µM
Sequence: SFSTTINYTL

- Kd (HLA-C*14:02 [13]): 1.12 µM
- IC50 (HLA-A*29:02 [14]): 1.21 µM
- IC50 (HLA-A*24:02 [15]): 1.24 µM
- IC50 (HLA-B*37:01): ≥ 20 µM
- IC50 (HLA-B*18:01 [16]): ≥ 20 µM
- IC50 (HLA-B*14:02): ≥ 20 µM
- IC50 (HLA-B*53:01): ≥ 20 µM
- IC50 (HLA-A*31:01): ≥ 20 µM
- IC50 (HLA-B*08:01): ≥ 20 µM
- IC50 (HLA-A*01:01): ≥ 20 µM
- IC50 (HLA-B*40:02): ≥ 20 µM
- IC50 (HLA-B*07:02): 2.51 µM
- IC50 (HLA-A*03:01 [17]): ≥ 20 µM
- IC50 (HLA-A*25:01): ≥ 20 µM
- IC50 (HLA-A*68:02 [18]): 1.01 µM
- IC50 (HLA-A*11:01): ≥ 20 µM
- IC50 (HLA-B*51:01 [19]): ≥ 20 µM
- IC50 (HLA-B*35:01 [20]): ≥ 20 µM
- IC50 (HLA-B*58:01): ≥ 20 µM
- IC50 (HLA-A*02:01 [21]): 0.0208 µM
- IC50 (HLA-B*44:03): ≥ 20 µM
Sequence: SLMASSPTSI

Sequence: YLQPRTFLL
- Kd (HLA-A*02:01 [22]): 0.075 µM

Sequence: YRATYSMAL
- Kd (HLA-A*29:02 [23]): ≥ 20 µM
- Kd (HLA-B*18:01 [24]): ≥ 20 µM
- Kd (HLA-C*07:02): 0.08 µM
- Kd (HLA-A*26:01 [25]): ≥ 20 µM
- Kd (HLA-B*57:01 [26]): ≥ 20 µM
- Kd (HLA-A*03:01 [27]): ≥ 20 µM
- Kd (HLA-A*69:01 [28]): ≥ 20 µM
- Kd (HLA-B*83:01; [31]): ≥ 5 µM
- Kd (HLA-C*14:02 [29]): 0.119 µM
- Kd (HLA-B*15:42; [31]): ≥ 5 µM
- Kd (HLA-B*27:20; [31]): 0.0007 µM
- Kd (HLA-B*45:06; [31]): ≥ 5 µM
- Kd (HLA-C*06:02): 0.0061 µM
